One assay has as its system ACE. The settings on record: previously reported peptides; cited from earlier work. From the text:
The potent ACE inhibitory peptides are generally short chains of 3–6 amino acids, with a Ser, Leu, or Thr at the C-terminal, which plays an important role in this activity. The ACE inhibitory peptides identified in this study, except for IKEVTER, seem to be of a larger size than those of inhibitory peptides described in previous reports. ACE inhibitory peptides have been previously reported from meat and seafood vertebrate specimens, and their IC50 values have been reported.

The target in assay [1] is T1, ACE, a dipeptidyl carboxypeptidase (EC 3.4.15.1) extracted from rabbit lung (Oryctolagus cuniculus, UniProt P12822).
T1 construct: extracted from rabbit lung; purchased Sigma Chemical Co. (St. Louis, MO, USA); host or cells: rabbit lung tissue
T1 sequence (P12822 34-1310): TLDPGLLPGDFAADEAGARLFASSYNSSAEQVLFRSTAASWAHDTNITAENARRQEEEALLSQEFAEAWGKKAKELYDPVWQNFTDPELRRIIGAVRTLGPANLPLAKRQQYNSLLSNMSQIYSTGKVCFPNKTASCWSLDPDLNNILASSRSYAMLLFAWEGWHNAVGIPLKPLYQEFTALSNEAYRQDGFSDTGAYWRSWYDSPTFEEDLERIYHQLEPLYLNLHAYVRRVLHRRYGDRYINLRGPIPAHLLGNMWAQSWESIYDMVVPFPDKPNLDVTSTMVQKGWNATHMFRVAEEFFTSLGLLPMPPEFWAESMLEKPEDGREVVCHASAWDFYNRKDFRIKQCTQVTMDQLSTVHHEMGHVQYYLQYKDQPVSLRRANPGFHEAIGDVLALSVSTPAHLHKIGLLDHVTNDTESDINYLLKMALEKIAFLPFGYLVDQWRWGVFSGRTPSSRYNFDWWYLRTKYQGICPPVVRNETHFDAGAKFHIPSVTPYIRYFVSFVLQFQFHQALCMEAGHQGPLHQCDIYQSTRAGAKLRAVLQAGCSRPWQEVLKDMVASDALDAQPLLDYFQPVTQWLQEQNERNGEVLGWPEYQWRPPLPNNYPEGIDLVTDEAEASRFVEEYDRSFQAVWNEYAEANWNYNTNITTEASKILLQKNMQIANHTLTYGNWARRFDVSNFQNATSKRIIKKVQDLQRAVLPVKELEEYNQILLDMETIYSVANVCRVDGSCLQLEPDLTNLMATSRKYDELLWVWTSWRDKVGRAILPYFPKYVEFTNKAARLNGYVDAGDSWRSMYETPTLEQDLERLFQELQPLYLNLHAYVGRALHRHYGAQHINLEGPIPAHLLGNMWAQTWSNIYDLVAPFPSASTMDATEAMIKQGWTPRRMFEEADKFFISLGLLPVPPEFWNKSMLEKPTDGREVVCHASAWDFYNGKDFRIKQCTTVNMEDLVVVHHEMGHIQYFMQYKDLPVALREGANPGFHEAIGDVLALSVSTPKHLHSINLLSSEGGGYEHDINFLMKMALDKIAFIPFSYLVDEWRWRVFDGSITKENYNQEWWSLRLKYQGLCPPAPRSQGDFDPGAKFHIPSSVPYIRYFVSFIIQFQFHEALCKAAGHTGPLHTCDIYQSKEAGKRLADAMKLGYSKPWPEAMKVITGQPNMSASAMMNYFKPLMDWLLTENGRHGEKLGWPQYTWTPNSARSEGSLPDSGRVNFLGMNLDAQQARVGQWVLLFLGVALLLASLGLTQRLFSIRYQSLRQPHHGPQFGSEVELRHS
The experiment in a line: ACE inhibitory activity assay, modified Cheung method (96-well plate, HHL, OPA fluorescence). The class given is biochemical. The settings on record: synthesized peptides identified from digested venison; mean ± SD of three repeated experiments; ND = not detectable. As to the method:
The digested samples were centrifuged at 10,000× g for 15 min, and the supernatants were subjected to an ACE inhibitory assay. ACE inhibitory activity was measured using a previously reported method. ACE, a dipeptidyl carboxypeptidase (EC 3.4.15.1) extracted from rabbit lung, was obtained from Sigma Chemical Co. (St. Louis, MO, USA). Hippuryl-L-histidyl-L-leucine (HHL) (Nacalai Tesque) was used as the synthetic substrate. A 40 µL aliquot of each sample solution was added to 100 µL of borate buffer (containing 0.3 M NaCl, 5 mM HHL, pH 8.3) and incubated at 37 °C for 3 min. Then, 20 µL ACE solution (0.1 U mL^−1) was added to each sample solution, and the reaction mixture was incubated at 37 °C for 30 min. After that, the reaction was terminated using 250 µL of 1 M HCl, and hippuric acid was extracted by adding 1.5 mL of ethyl acetate and shaking. Eventually, mixtures were centrifuged at 1750× g for 10 min, 1 mL of supernatant was transferred into a test tube, and ethyl acetate was eliminated by heat evaporation at 95 °C. The precipitate was re-dissolved in 2 mL of deionized water and measured spectrophotometrically at 228 nm, using a UV-1800 spectrophotometer (Shimadzu, Kyoto, Japan). For the analysis of samples fractionated by reversed-phase chromatography, the synthetic peptides were assayed using the modified method reported by Cheung, et al.. Briefly, 50 µL of sample solution, 100 µL of the ACE 0.01 U/mL, and 20 µL of 25 mM HHL were mixed in a 96-well plate and incubated at 37 °C for 40 min. Subsequently, 100 µL of 1 M NaOH, 10 µL 0.2% OPA, and 15 µL 3.6 M phosphoric acid were added, and the fluorescence of samples was measured using the plate-reader POWERSCAN MX (DS Pharma Biomedical Co., Ltd., Osaka, Japan) at an excitation wavelength of 360 nm and emission wavelength of 460 nm. The inhibitory activity (%) was calculated as follows: inhibitory activity (%) = ((Ac – As)/(Ac – Ab)) × 100. Ac is the intensity of the control, as is the intensity of the sample, and Ab is the intensity of the blank. Data are expressed as the 50% inhibitory concentration (IC50) for each sample.

For assay [2], the target named is T2, angiotensin I-converting enzyme (ACE), a dipeptidyl carboxypeptidase (EC 3.4.15.1) extracted from rabbit lung (rabbit) (UniProt P12822).
T2 sequence: T1 sequence (P12822 34-1310)

Where two headings read alike, the source gives them in different places. Marks after values point to notes of the source that are not given here. Where no end group is shown, it is not given here. [ ]: non-standard residue; d: D form.

The IC50 is the concentration needed to halve the response being measured.

Turning to GFHI, the “ACE inhibition IC50 values” with ACE was 117 µg/mL. “mQGTLEDQIISANPLLEAFGNAK ([code m]QGTLEDQIISANPLLEAFGNAK; not fully specified; printed as mQGTLEDQIISANPLLEAFGNAK) [synthesized peptide identified from digested venison; origin Myosin-1]”: in assay [1], the “Ace Inhibitory Activity (IC50)” value is listed as 292.83 ± 38.27 ^a,b μg/mL.

With “VcNYVNWIQQTIAAN (V[code c]NYVNWIQQTIAAN; not fully specified; printed as VcNYVNWIQQTIAAN) [synthesized peptide identified from digested venison; origin Tropomyosin alpha-3 chain]”, in assay [1], the “Ace Inhibitory Activity (IC50)” value is on record as 358.64 ± 64.71 ^a μg/mL. In turn, “IKEVTER [IKEVTER, Isoleucine-Lysine- Glutamic Acid-Valine-Threonine-Glutamic Acid-Arginine]” showed an IC50 in assay [1] of 99 µM. As to GLSDGEWQ, in the assay with ACE, the “ACE inhibition IC50 values” was 50.5 µg/mL. For DFHING, the “ACE inhibition IC50 values” in the assay on ACE is 64.3 µg/mL.

The molecule TEAGATVTVK [TEAGATVTVK] showed an IC50 in assay [1] of 214 µM. Turning to TEAGATVTVK […], the ACE inhibitory activity (IC50; hydrolysis of hippuryl-L-histidyl-L-leucine by ACE, OPA fluorescence, 37 °C) in assay [2] worked out at 359 µg/mL; in assay [2] (record 2), 293 µg/mL; in assay [2] (record 3), 86.5 µg/mL; in assay [2] (record 4), 209 µg/mL.
